Results as given in patent US20030180895A1.

Legend:
Test in all cases: cell-based or functional assay
[1] = molecular target: Bacillus subtilis xylanase A mutant D119N (Bacillus subtilis) (UniProt P18429)
[2] = molecular target: Bacillus subtilis xylanase A mutant D119Y (Bacillus subtilis) (UniProt P18429)
[3] = molecular target: Bacillus subtilis xylanase A mutant D11F (Bacillus subtilis) (UniProt P18429)
[4] = molecular target: Bacillus subtilis xylanase A mutant D11F/R122D (Bacillus subtilis) (UniProt P18429)
[5] = molecular target: Bacillus subtilis xylanase A mutant D11N (Bacillus subtilis) (UniProt P18429)
[6] = molecular target: Bacillus subtilis xylanase A mutant D121A (Bacillus subtilis) (UniProt P18429)
[7] = molecular target: Bacillus subtilis xylanase A mutant D121K (Bacillus subtilis) (UniProt P18429)
[8] = molecular target: Bacillus subtilis xylanase A mutant D121N (Bacillus subtilis) (UniProt P18429)
[9] = molecular target: Bacillus subtilis xylanase A mutant G120D (Bacillus subtilis) (UniProt P18429)
[10] = molecular target: Bacillus subtilis xylanase A mutant G120K (Bacillus subtilis) (UniProt P18429)
[11] = molecular target: Bacillus subtilis xylanase A mutant G120N (Bacillus subtilis) (UniProt P18429)
[12] = molecular target: Bacillus subtilis xylanase A mutant G12F (Bacillus subtilis) (UniProt P18429)
[13] = molecular target: Bacillus subtilis xylanase A mutant G13F (Bacillus subtilis) (UniProt P18429)
[14] = molecular target: Bacillus subtilis xylanase A mutant G34T (Bacillus subtilis) (UniProt P18429)
[15] = molecular target: Bacillus subtilis xylanase A mutant N114D (Bacillus subtilis) (UniProt P18429)
[16] = molecular target: Bacillus subtilis xylanase A mutant N29D (Bacillus subtilis) (UniProt P18429)
[17] = molecular target: Bacillus subtilis xylanase A mutant N29K (Bacillus subtilis) (UniProt P18429)
[18] = molecular target: Bacillus subtilis xylanase A mutant N29Y (Bacillus subtilis) (UniProt P18429)
[19] = molecular target: Bacillus subtilis xylanase A mutant Q175L (Bacillus subtilis) (UniProt P18429)
[20] = molecular target: Bacillus subtilis xylanase A mutant Q175S (Bacillus subtilis) (UniProt P18429)
[21] = molecular target: Bacillus subtilis xylanase A mutant R122A (Bacillus subtilis) (UniProt P18429)
[22] = molecular target: Bacillus subtilis xylanase A mutant S31K (Bacillus subtilis) (UniProt P18429)
[23] = molecular target: Bacillus subtilis xylanase A mutant T123D (Bacillus subtilis) (UniProt P18429)
[24] = molecular target: Bacillus subtilis xylanase A mutant T123K (Bacillus subtilis) (UniProt P18429)
[25] = molecular target: Bacillus subtilis xylanase A mutant Y113A (Bacillus subtilis) (UniProt P18429)
[26] = molecular target: Bacillus subtilis xylanase A mutant Y113K (Bacillus subtilis) (UniProt P18429)
[27] = molecular target: Thermomyces lanuginosus xylanase A mutant D19F (Thermomyces lanuginosus) (UniProt O43097)
UniProt O43097, sequence (O43097 32-225, stated change not applied): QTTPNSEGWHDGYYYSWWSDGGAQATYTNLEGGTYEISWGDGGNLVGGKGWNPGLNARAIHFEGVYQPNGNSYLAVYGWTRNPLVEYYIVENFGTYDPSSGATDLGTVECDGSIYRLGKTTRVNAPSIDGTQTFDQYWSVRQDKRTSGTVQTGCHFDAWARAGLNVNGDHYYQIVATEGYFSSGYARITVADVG

- Relative inhibition, % at 1, 26 XIU/ml [1]: 91%
- Relative inhibition, % at 3, 15 XIU/ml [1]: 74%
- Relative inhibition, % at 6, 3 XIU/ml [1]: 44%
- Relative inhibition, % at 12, 6 XIU/ml [1]: 22%
- Relative inhibition, % at 1, 26 XIU/ml [2]: 87%
- Relative inhibition, % at 3, 15 XIU/ml [2]: 50%
- Relative inhibition, % at 6, 3 XIU/ml [2]: 28%
- Relative inhibition, % at 12, 6 XIU/ml [2]: 22%
- Relative inhibition, % at 1, 26 XIU/ml [3]: 114%
- Relative inhibition, % at 3, 15 XIU/ml [3]: 119%
- Relative inhibition, % at 6, 3 XIU/ml [3]: 116%
- Relative inhibition, % at 12, 6 XIU/ml [3]: 115%
- Relative inhibition, % at 1, 26 XIU/ml [4]: 109%
- Relative inhibition, % at 3, 15 XIU/ml [4]: 111%
- Relative inhibition, % at 6, 3 XIU/ml [4]: 110%
- Relative inhibition, % at 12, 6 XIU/ml [4]: 109%
- Relative inhibition, % at 1, 26 XIU/ml [5]: 93%
- Relative inhibition, % at 3, 15 XIU/ml [5]: 72%
- Relative inhibition, % at 6, 3 XIU/ml [5]: 53%
- Relative inhibition, % at 12, 6 XIU/ml [5]: 32%
- Relative inhibition, % at 1, 26 XIU/ml [6]: 81%
- Relative inhibition, % at 3, 15 XIU/ml [6]: 50%
- Relative inhibition, % at 6, 3 XIU/ml [6]: 27%
- Relative inhibition, % at 12, 6 XIU/ml [6]: 21%
- Relative inhibition, % at 1, 26 XIU/ml [7]: 104%
- Relative inhibition, % at 3, 15 XIU/ml [7]: 95%
- Relative inhibition, % at 6, 3 XIU/ml [7]: 85%
- Relative inhibition, % at 12, 6 XIU/ml [7]: 75%
- Relative inhibition, % at 1, 26 XIU/ml [8]: 80%
- Relative inhibition, % at 3, 15 XIU/ml [8]: 36%
- Relative inhibition, % at 6, 3 XIU/ml [8]: 16%
- Relative inhibition, % at 12, 6 XIU/ml [8]: 14%
- Relative inhibition, % at 1, 26 XIU/ml [9]: 84%
- Relative inhibition, % at 3, 15 XIU/ml [9]: 47%
- Relative inhibition, % at 6, 3 XIU/ml [9]: 24%
- Relative inhibition, % at 12, 6 XIU/ml [9]: 18%
- Relative inhibition, % at 1, 26 XIU/ml [10]: 85%
- Relative inhibition, % at 3, 15 XIU/ml [10]: 52%
- Relative inhibition, % at 6, 3 XIU/ml [10]: 29%
- Relative inhibition, % at 12, 6 XIU/ml [10]: 22%
- Relative inhibition, % at 1, 26 XIU/ml [11]: 84%
- Relative inhibition, % at 3, 15 XIU/ml [11]: 49%
- Relative inhibition, % at 6, 3 XIU/ml [11]: 29%
- Relative inhibition, % at 12, 6 XIU/ml [11]: 23%
- Relative inhibition, % at 1, 26 XIU/ml [12]: 110%
- Relative inhibition, % at 3, 15 XIU/ml [12]: 106%
- Relative inhibition, % at 6, 3 XIU/ml [12]: 100%
- Relative inhibition, % at 12, 6 XIU/ml [12]: 92%
- Relative inhibition, % at 1, 26 XIU/ml [13]: 104%
- Relative inhibition, % at 3, 15 XIU/ml [13]: 95%
- Relative inhibition, % at 6, 3 XIU/ml [13]: 87%
- Relative inhibition, % at 12, 6 XIU/ml [13]: 84%
- Relative inhibition, % at 1, 26 XIU/ml [14]: 99%
- Relative inhibition, % at 3, 15 XIU/ml [14]: 99%
- Relative inhibition, % at 6, 3 XIU/ml [14]: 93%
- Relative inhibition, % at 12, 6 XIU/ml [14]: 86%
- Relative inhibition, % at 1, 26 XIU/ml [15]: 84%
- Relative inhibition, % at 3, 15 XIU/ml [15]: 57%
- Relative inhibition, % at 6, 3 XIU/ml [15]: 39%
- Relative inhibition, % at 12, 6 XIU/ml [15]: 29%
- Relative inhibition, % at 1, 26 XIU/ml [16]: 74%
- Relative inhibition, % at 3, 15 XIU/ml [16]: 44%
- Relative inhibition, % at 6, 3 XIU/ml [16]: 26%
- Relative inhibition, % at 12, 6 XIU/ml [16]: 20%
- Relative inhibition, % at 1, 26 XIU/ml [17]: 83%
- Relative inhibition, % at 3, 15 XIU/ml [17]: 50%
- Relative inhibition, % at 6, 3 XIU/ml [17]: 30%
- Relative inhibition, % at 12, 6 XIU/ml [17]: 23%
- Relative inhibition, % at 1, 26 XIU/ml [18]: 85%
- Relative inhibition, % at 3, 15 XIU/ml [18]: 49%
- Relative inhibition, % at 6, 3 XIU/ml [18]: 30%
- Relative inhibition, % at 12, 6 XIU/ml [18]: 24%
- Relative inhibition, % at 1, 26 XIU/ml [19]: 78%
- Relative inhibition, % at 3, 15 XIU/ml [19]: 42%
- Relative inhibition, % at 6, 3 XIU/ml [19]: 25%
- Relative inhibition, % at 12, 6 XIU/ml [19]: 23%
- Relative inhibition, % at 1, 26 XIU/ml [20]: 88%
- Relative inhibition, % at 3, 15 XIU/ml [20]: 59%
- Relative inhibition, % at 6, 3 XIU/ml [20]: 30%
- Relative inhibition, % at 12, 6 XIU/ml [20]: 19%
- Relative inhibition, % at 1, 26 XIU/ml [21]: 78%
- Relative inhibition, % at 3, 15 XIU/ml [21]: 46%
- Relative inhibition, % at 6, 3 XIU/ml [21]: 33%
- Relative inhibition, % at 12, 6 XIU/ml [21]: 26%
- Relative inhibition, % at 1, 26 XIU/ml [22]: 77%
- Relative inhibition, % at 3, 15 XIU/ml [22]: 42%
- Relative inhibition, % at 6, 3 XIU/ml [22]: 23%
- Relative inhibition, % at 12, 6 XIU/ml [22]: 23%
- Relative inhibition, % at 1, 26 XIU/ml [23]: 83%
- Relative inhibition, % at 3, 15 XIU/ml [23]: 36%
- Relative inhibition, % at 6, 3 XIU/ml [23]: 20%
- Relative inhibition, % at 12, 6 XIU/ml [23]: 17%
- Relative inhibition, % at 1, 26 XIU/ml [24]: 80%
- Relative inhibition, % at 3, 15 XIU/ml [24]: 46%
- Relative inhibition, % at 6, 3 XIU/ml [24]: 30%
- Relative inhibition, % at 12, 6 XIU/ml [24]: 25%
- Relative inhibition, % at 1, 26 XIU/ml [25]: 96%
- Relative inhibition, % at 3, 15 XIU/ml [25]: 80%
- Relative inhibition, % at 6, 3 XIU/ml [25]: 62%
- Relative inhibition, % at 12, 6 XIU/ml [25]: 43%
- Relative inhibition, % at 1, 26 XIU/ml [26]: 103%
- Relative inhibition, % at 3, 15 XIU/ml [26]: 85%
- Relative inhibition, % at 6, 3 XIU/ml [26]: 63%
- Relative inhibition, % at 12, 6 XIU/ml [26]: 47%
- Relative inhibition, % at 1, 26 XIU/ml [27]: 73%
- Relative inhibition, % at 3, 15 XIU/ml [27]: 38%
- Relative inhibition, % at 6, 3 XIU/ml [27]: 24%
- Relative inhibition, % at 12, 6 XIU/ml [27]: 20%
Substance: wheat endogenous xylanase inhibitor
